Source: article PMC9482650, “Quantitative fragmentomics allow affinity mapping of interactomes” (Nature Communications, 2022)

T1: SNTG1, Q9NSN8
T1 sequence (Q9NSN8 52-150, limits assumed, looked up): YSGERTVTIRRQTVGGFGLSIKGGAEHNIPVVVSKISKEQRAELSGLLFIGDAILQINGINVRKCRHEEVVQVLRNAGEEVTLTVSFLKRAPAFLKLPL

T2: NHERF3_1, Q5T2W1
T2 sequence (Q5T2W1 4-100, limits assumed, looked up): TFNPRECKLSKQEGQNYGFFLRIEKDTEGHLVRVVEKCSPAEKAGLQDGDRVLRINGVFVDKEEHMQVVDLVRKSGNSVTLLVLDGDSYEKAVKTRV

T3: SNTB1, Q13884
T3 sequence (Q13884 107-205, limits assumed, looked up): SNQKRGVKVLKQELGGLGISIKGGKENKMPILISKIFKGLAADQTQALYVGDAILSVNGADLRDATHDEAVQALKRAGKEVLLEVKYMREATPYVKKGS

T4: MPDZ_5, O75970
T4 sequence (O75970 695-796, limits assumed, looked up): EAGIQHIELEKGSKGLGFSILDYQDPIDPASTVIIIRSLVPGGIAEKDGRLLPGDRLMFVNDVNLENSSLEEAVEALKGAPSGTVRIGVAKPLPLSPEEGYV

T5: TJP3_3, O95049
T5 sequence (O95049 375-456, limits assumed, looked up): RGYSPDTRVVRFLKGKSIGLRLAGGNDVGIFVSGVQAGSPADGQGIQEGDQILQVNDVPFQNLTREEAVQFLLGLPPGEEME

T6: SNTG2, Q9NY99
T6 sequence (Q9NY99 68-166, limits assumed, looked up): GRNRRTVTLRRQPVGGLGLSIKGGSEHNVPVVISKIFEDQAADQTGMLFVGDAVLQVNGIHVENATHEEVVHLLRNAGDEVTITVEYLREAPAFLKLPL

T7: APBA2_1, Q99767
T7 sequence (Q99767 563-664, limits assumed, looked up): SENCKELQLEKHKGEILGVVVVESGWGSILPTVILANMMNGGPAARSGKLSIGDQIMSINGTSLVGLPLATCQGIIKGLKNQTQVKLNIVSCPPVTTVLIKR

T8: APBA3_1, O96018
T8 sequence (O96018 389-490, limits assumed, looked up): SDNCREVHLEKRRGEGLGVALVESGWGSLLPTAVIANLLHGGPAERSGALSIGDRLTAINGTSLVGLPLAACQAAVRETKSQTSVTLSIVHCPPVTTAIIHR

T9: GRIP1_5, Q9Y3R0
T9 sequence (Q9Y3R0 568-668, limits assumed, looked up): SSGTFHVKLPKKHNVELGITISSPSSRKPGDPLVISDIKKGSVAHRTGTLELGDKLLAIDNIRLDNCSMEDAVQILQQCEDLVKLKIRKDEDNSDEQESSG

T10: GRIP1_2, Q9Y3R0
T10 sequence (Q9Y3R0 145-248, limits assumed, looked up): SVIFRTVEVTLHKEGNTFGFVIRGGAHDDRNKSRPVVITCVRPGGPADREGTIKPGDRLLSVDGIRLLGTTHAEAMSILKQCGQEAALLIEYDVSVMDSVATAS

T11: SHANK1, Q9Y566
T11 sequence (Q9Y566 658-767, limits assumed, looked up): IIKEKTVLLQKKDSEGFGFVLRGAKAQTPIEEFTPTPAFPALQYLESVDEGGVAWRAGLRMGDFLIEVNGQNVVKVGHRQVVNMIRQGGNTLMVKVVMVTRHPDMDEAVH

T12: APBA1_1, Q02410
T12 sequence (Q02410 651-752, limits assumed, looked up): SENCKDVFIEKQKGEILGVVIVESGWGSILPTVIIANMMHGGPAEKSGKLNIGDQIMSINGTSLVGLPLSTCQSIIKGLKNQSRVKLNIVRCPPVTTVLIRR


These binders were tested against T1, SNTG1, Q9NSN8 (assay: holdup assay). Conditions: plain residues with an end cap or a label only (N-terminal biotin on a linker: ado-ado).
Set-up: key: below the threshold = too weak to quantify, mostly under pKd 3.1 to 4

Binder	pKd
VISERNSTTV [C3AR1, Q16581]	below the threshold
WRSKRTDTLL [RAMP3, O60896]	below the threshold

These binders were tested against DLG2_3, Q15700 (assay: holdup assay). Conditions: plain residues with an end cap or a label only (N-terminal biotin on a linker: ado-ado).
Set-up: key: below the threshold = too weak to quantify, mostly under pKd 3.1 to 4

Binder	pKd
VISERNSTTV [C3AR1, Q16581]	3.8
WRSKRTDTLL [RAMP3, O60896]	below the threshold

What follows are binders tested against T2, NHERF3_1, Q5T2W1 (assay: holdup assay). Conditions: plain residues with an end cap or a label only (N-terminal biotin on a linker: ado-ado).
Set-up: key: below the threshold = too weak to quantify, mostly under pKd 3.1 to 4

Binder	pKd
VISERNSTTV [C3AR1, Q16581]	below the threshold
WRSKRTDTLL [RAMP3, O60896]	5.16

What follows are binders tested against T3, SNTB1, Q13884 (assay: holdup assay). Conditions: plain residues with an end cap or a label only (N-terminal biotin on a linker: ado-ado).
Set-up: key: below the threshold = too weak to quantify, mostly under pKd 3.1 to 4

Binder	pKd
VISERNSTTV [C3AR1, Q16581]	3.77
WRSKRTDTLL [RAMP3, O60896]	below the threshold

The binders below were run against MAGI1_1, Q96QZ7 (assay: holdup assay). Conditions: plain residues with an end cap or a label only (N-terminal biotin on a linker: ado-ado).
Set-up: key: below the threshold = too weak to quantify, mostly under pKd 3.1 to 4

Chain of MAGI1_1, Q96QZ7 (Q96QZ7 1-106): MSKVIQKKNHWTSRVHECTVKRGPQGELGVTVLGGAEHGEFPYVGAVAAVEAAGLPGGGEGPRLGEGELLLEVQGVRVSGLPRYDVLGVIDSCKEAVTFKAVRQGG

Binder	pKd
VISERNSTTV [C3AR1, Q16581]	below the threshold
WRSKRTDTLL [RAMP3, O60896]	below the threshold

The binders below were run against GRIP2_7, Q9C0E4 (assay: holdup assay). Conditions: plain residues with an end cap or a label only (N-terminal biotin on a linker: ado-ado).
Set-up: key: below the threshold = too weak to quantify, mostly under pKd 3.1 to 4

Chain of GRIP2_7, Q9C0E4 (Q9C0E4 934-1023): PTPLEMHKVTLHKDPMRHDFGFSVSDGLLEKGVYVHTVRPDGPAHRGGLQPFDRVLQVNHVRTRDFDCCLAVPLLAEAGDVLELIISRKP

Binder	pKd
VISERNSTTV [C3AR1, Q16581]	below the threshold
WRSKRTDTLL [RAMP3, O60896]	below the threshold

The binders below were run against DLG1_3, Q12959 (assay: holdup assay). Conditions: plain residues with an end cap or a label only (N-terminal biotin on a linker: ado-ado).
Set-up: key: below the threshold = too weak to quantify, mostly under pKd 3.1 to 4

Chain of DLG1_3, Q12959 (Q12959 457-571): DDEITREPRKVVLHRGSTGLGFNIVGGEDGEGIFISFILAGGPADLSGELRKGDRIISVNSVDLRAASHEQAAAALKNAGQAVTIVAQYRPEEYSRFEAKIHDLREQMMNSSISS

Binder	pKd
VISERNSTTV [C3AR1, Q16581]	below the threshold
WRSKRTDTLL [RAMP3, O60896]	below the threshold

What follows are binders tested against GRIP2_6, Q9C0E4 (assay: holdup assay). Conditions: plain residues with an end cap or a label only (N-terminal biotin on a linker: ado-ado).
Set-up: key: below the threshold = too weak to quantify, mostly under pKd 3.1 to 4

Chain of GRIP2_6, Q9C0E4 (Q9C0E4 648-740): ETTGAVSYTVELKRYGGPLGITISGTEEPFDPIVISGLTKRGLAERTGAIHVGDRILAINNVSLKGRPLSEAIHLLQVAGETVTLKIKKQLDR

Binder	pKd
VISERNSTTV [C3AR1, Q16581]	below the threshold
WRSKRTDTLL [RAMP3, O60896]	below the threshold

These binders were tested against T4, MPDZ_5, O75970 (assay: holdup assay). Conditions: plain residues with an end cap or a label only (N-terminal biotin on a linker: ado-ado).
Set-up: key: below the threshold = too weak to quantify, mostly under pKd 3.1 to 4

Binder	pKd
VISERNSTTV [C3AR1, Q16581]	below the threshold
WRSKRTDTLL [RAMP3, O60896]	below the threshold

Each binder was assayed against T5, TJP3_3, O95049 (assay: holdup assay). Conditions: plain residues with an end cap or a label only (N-terminal biotin on a linker: ado-ado).
Set-up: key: below the threshold = too weak to quantify, mostly under pKd 3.1 to 4

Binder	pKd
VISERNSTTV [C3AR1, Q16581]	below the threshold
WRSKRTDTLL [RAMP3, O60896]	below the threshold

The binders below were run against PARD3_3, Q8TEW0 (assay: holdup assay). Conditions: plain residues with an end cap or a label only (N-terminal biotin on a linker: ado-ado).
Set-up: key: below the threshold = too weak to quantify, mostly under pKd 3.1 to 4

Chain of PARD3_3, Q8TEW0 (Q8TEW0 582-685): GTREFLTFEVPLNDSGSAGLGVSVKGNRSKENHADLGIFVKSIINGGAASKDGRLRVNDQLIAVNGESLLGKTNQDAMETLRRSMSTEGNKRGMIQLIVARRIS

Binder	pKd
VISERNSTTV [C3AR1, Q16581]	below the threshold
WRSKRTDTLL [RAMP3, O60896]	3.48

These binders were tested against AHNAK1, Q09666 (assay: holdup assay). Conditions: plain residues with an end cap or a label only (N-terminal biotin on a linker: ado-ado).
Set-up: key: below the threshold = too weak to quantify, mostly under pKd 3.1 to 4

Chain of AHNAK1, Q09666 (Q09666 4-100): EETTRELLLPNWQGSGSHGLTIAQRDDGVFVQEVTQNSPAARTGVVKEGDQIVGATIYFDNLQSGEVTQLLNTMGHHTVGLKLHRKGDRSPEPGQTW

Binder	pKd
VISERNSTTV [C3AR1, Q16581]	below the threshold
WRSKRTDTLL [RAMP3, O60896]	below the threshold

These binders were tested against Inadl_8, Q8NI35 (assay: holdup assay). Conditions: plain residues with an end cap or a label only (N-terminal biotin on a linker: ado-ado).
Set-up: key: below the threshold = too weak to quantify, mostly under pKd 3.1 to 4

Chain of Inadl_8, Q8NI35 (Q8NI35 1425-1530): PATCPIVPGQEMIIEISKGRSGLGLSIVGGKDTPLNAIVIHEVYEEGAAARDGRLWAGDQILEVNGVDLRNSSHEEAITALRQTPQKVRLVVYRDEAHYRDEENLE

Binder	pKd
VISERNSTTV [C3AR1, Q16581]	3.54
WRSKRTDTLL [RAMP3, O60896]	below the threshold

What follows are binders tested against T6, SNTG2, Q9NY99 (assay: holdup assay). Conditions: plain residues with an end cap or a label only (N-terminal biotin on a linker: ado-ado).
Set-up: key: below the threshold = too weak to quantify, mostly under pKd 3.1 to 4

Binder	pKd
VISERNSTTV [C3AR1, Q16581]	3.61
WRSKRTDTLL [RAMP3, O60896]	below the threshold

What follows are binders tested against T7, APBA2_1, Q99767 (assay: holdup assay). Conditions: plain residues with an end cap or a label only (N-terminal biotin on a linker: ado-ado).
Set-up: key: below the threshold = too weak to quantify, mostly under pKd 3.1 to 4

Binder	pKd
VISERNSTTV [C3AR1, Q16581]	below the threshold
WRSKRTDTLL [RAMP3, O60896]	below the threshold

What follows are binders tested against T8, APBA3_1, O96018 (assay: holdup assay). Conditions: plain residues with an end cap or a label only (N-terminal biotin on a linker: ado-ado).
Set-up: key: below the threshold = too weak to quantify, mostly under pKd 3.1 to 4

Binder	pKd
VISERNSTTV [C3AR1, Q16581]	below the threshold
WRSKRTDTLL [RAMP3, O60896]	below the threshold

The binders below were run against GOPC, Q9HD26 (assay: holdup assay). Conditions: plain residues with an end cap or a label only (N-terminal biotin on a linker: ado-ado).
Set-up: key: below the threshold = too weak to quantify, mostly under pKd 3.1 to 4

Binder	pKd
VISERNSTTV [C3AR1, Q16581]	3.92
WRSKRTDTLL [RAMP3, O60896]	3.61

The binders below were run against T9, GRIP1_5, Q9Y3R0 (assay: holdup assay). Conditions: plain residues with an end cap or a label only (N-terminal biotin on a linker: ado-ado).
Set-up: key: below the threshold = too weak to quantify, mostly under pKd 3.1 to 4

Binder	pKd
VISERNSTTV [C3AR1, Q16581]	below the threshold
WRSKRTDTLL [RAMP3, O60896]	below the threshold

Each binder was assayed against T10, GRIP1_2, Q9Y3R0 (assay: holdup assay). Conditions: plain residues with an end cap or a label only (N-terminal biotin on a linker: ado-ado).
Set-up: key: below the threshold = too weak to quantify, mostly under pKd 3.1 to 4

Binder	pKd
VISERNSTTV [C3AR1, Q16581]	below the threshold
WRSKRTDTLL [RAMP3, O60896]	below the threshold

Each binder was assayed against T11, SHANK1, Q9Y566 (assay: holdup assay). Conditions: plain residues with an end cap or a label only (N-terminal biotin on a linker: ado-ado).
Set-up: key: below the threshold = too weak to quantify, mostly under pKd 3.1 to 4

Binder	pKd
VISERNSTTV [C3AR1, Q16581]	3.49
WRSKRTDTLL [RAMP3, O60896]	below the threshold

The binders below were run against GRID2IP_2, A4D2P6 (assay: holdup assay). Conditions: plain residues with an end cap or a label only (N-terminal biotin on a linker: ado-ado).
Set-up: key: below the threshold = too weak to quantify, mostly under pKd 3.1 to 4

Chain of GRID2IP_2, A4D2P6 (A4D2P6 272-370): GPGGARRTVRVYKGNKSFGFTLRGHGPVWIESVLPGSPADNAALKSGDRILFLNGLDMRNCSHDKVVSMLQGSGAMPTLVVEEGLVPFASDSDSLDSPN

Binder	pKd
VISERNSTTV [C3AR1, Q16581]	3.66
WRSKRTDTLL [RAMP3, O60896]	below the threshold

The binders below were run against Inadl_9, Q8NI35 (assay: holdup assay). Conditions: plain residues with an end cap or a label only (N-terminal biotin on a linker: ado-ado).
Set-up: key: below the threshold = too weak to quantify, mostly under pKd 3.1 to 4

Chain of Inadl_9, Q8NI35 (Q8NI35 1530-1615): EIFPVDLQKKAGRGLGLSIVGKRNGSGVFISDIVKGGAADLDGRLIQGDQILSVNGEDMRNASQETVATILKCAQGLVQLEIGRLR

Binder	pKd
VISERNSTTV [C3AR1, Q16581]	3.64
WRSKRTDTLL [RAMP3, O60896]	below the threshold

What follows are binders tested against T12, APBA1_1, Q02410 (assay: holdup assay). Conditions: plain residues with an end cap or a label only (N-terminal biotin on a linker: ado-ado).
Set-up: key: below the threshold = too weak to quantify, mostly under pKd 3.1 to 4

Binder	pKd
VISERNSTTV [C3AR1, Q16581]	below the threshold
WRSKRTDTLL [RAMP3, O60896]	below the threshold

What follows are binders tested against GORASP1, Q9BQQ3 (assay: holdup assay). Conditions: plain residues with an end cap or a label only (N-terminal biotin on a linker: ado-ado).
Set-up: key: below the threshold = too weak to quantify, mostly under pKd 3.1 to 4

Chain of GORASP1, Q9BQQ3 (Q9BQQ3 1-208): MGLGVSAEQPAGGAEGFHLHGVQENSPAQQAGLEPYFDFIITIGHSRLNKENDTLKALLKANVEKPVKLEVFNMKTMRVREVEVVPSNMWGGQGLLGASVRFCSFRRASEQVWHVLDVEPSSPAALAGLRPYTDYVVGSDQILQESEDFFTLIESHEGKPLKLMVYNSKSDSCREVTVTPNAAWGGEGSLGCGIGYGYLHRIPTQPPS

Binder	pKd
VISERNSTTV [C3AR1, Q16581]	below the threshold
WRSKRTDTLL [RAMP3, O60896]	3.78
